Reference: paper PMC2784006

B1: calcium/calmodulin-dependent serine protein kinase (CASK) (natural protein)
chain: MADDDVLFEDVYELCEVIGKGPFSVVRRCINRETGQQFAVKIVDVAKFTSSPGLSTEDLKREASICHMLKHPHIVELLETYSSDGMLYMVFEFMDGADLCFEIVKRADAGFVYSEAVASHYMRQILEALRYCHDNNIIHRDVKPHCVLLASKENSAPVKLGGFGVAIQLGESGLVAGGRVGTPHFMAPEVVKREPYGKPVDVWGCGVILFILLSGCLPFYGTKERLFEGIIKGKYKMNPRQWSHISESAKDLVRRMLMLDPAERITVYEALNHPWLKERDRYAYKIHLPETVEQLRKFNARRKLKGAVLAAVSSHKFNSFYGDPPEELPDFSEDPTSSGLLAAERAVSQVLDSLEEIHALTDCSEKDLDFLHSVFQDQHLHTLLDLYDKINTKSSPQIRNPPSDAVQRAKEVLEEISCYPENNDAKELKRILTQPHFMALLQTHDVVAHEVYSDEALRVTPPPTSPYLNGDSPESANGDMDMENVTRVRLVQFQKNTDEPMGITLKMNELNHCIVARIMHGGMIHRQGTLHVGDEIREINGISVANQTVEQLQKMLREMRGSITFKIVPSYRTQSSSCERDSPSTSRQSPANGHSSTNNSVSDLPSTTQPKGRQIYVRAQFEYDPAKDDLIPCKEAGIRFRVGDIIQIISKDDHNWWQGKLENSKNGTAGLIPSPELQEWRVACIAMEKTKQEQQASCTWFGKKKKQYKDKYLAKHNAVFDQLDLVTYEEVVKLPAFKRKTLVLLGAHGVGRRHIKNTLITKHPDRFAYPIPHTTRPPKKDEENGKNYYFVSHDQMMQDISNNEYLEYGSHEDAMYGTKLETIRKIHEQGLIAILDVEPQALKVLRTAEFAPFVVFIAAPTITPGLNEDESLQRLQKESDVLQRTYAHYFDLTIINNEIDETIRHLEEAVELVCTAPQWVPVSWVY

The molecules below were run against HA-tagged Synaptic Cell Adhesion Molecule 1 (HA-SynCAM1), full length (mouse) (assay: Cell Adhesion Molecule / Receptor Recruitment Assay).
HA-tagged Synaptic Cell Adhesion Molecule 1 (HA-SynCAM1), full length (mouse), sequence (Q8R5M8 48-456): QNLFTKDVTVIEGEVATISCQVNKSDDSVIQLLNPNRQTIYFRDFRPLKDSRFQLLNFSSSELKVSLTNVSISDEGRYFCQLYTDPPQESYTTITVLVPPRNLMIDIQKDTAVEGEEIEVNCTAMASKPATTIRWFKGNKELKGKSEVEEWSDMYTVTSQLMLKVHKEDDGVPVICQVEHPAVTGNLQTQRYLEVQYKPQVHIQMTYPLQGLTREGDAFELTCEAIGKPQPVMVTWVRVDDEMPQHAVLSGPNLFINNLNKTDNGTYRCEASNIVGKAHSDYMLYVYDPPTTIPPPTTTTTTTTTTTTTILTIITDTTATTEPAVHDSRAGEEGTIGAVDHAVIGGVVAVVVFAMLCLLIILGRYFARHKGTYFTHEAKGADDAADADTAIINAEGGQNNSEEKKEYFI

Row | % increase in fluorescence intensity at microspheres relative to background [%] | Molecule
1 | 114 | GFP-tagged erythrocyte protein band 4.1-like 3 (protein 4.1B), full length (4.1B-GFP) (natural protein)
2 | 91.8 | Syntenin1-GFP (from UniProt O00560 1-298) (natural protein)
3 | 100 | protein 4.1N, GFP tagged (4.1N-GFP) (from UniProt Q9Z2H5 1-879) (natural protein)
4 | 123 | B1
